Like-named read-outs stand apart in the source and are kept apart here.
Experiments:
[1] = target: recombinant human TFPI (tissue factor pathway inhibitor) (human) (UniProt P10646)
[2] = target: recombinant human TFPI (tissue factor pathway inhibitor) (human) (UniProt P10646); assay: cell-based or functional assay
[3] = target: recombinant human TFPI (tissue factor pathway inhibitor) (human) (UniProt P10646); remark: listed apart in the source
[4] = target: recombinant human TFPI (tissue factor pathway inhibitor) (human) (UniProt P10646); assay: cell-based or functional assay; remark: listed apart in the source
[5] = target: recombinant human TFPI (tissue factor pathway inhibitor) (human) (UniProt P10646); assay: cell-based or functional assay; remark: listed apart in the source
[6] = target: recombinant human TFPI (tissue factor pathway inhibitor) (human) (UniProt P10646); assay: cell-based or functional assay; remark: listed apart in the source
[7] = target: recombinant human TFPI (tissue factor pathway inhibitor) (human) (UniProt P10646); assay: cell-based or functional assay; remark: listed apart in the source

B1: mAb2021 (anti-TFPI Ab, Novo Nordisk) (antibody, from another filing, V domains shown)
VH: EVQLVESGGGLVKPGGSLRLSCAASGFTFSNYAMSWVRQTPEKRLEWVATISRSGSYSYFPDSVQGRFTISRDNAKNSLYLQMNSLRAEDTAVYYCARLGGYDEGDAMDSWGQGTTVTVSS
VL: DIVMTQTPLSLSVTPGQPASISCKSSQSLLESDGKTYLNWYLQKPGQSPQLLIYLVSILDSGVPDRFSGSGSGTDFTLKISRVEAEDVGVYYCLQATHFPQTFGGGTKVEIKR
In the case of B1, the FXa assay % of FXa alone, 2.5 nM Ab, 10 nM TFPI [1] is reported as 8.7%, the FXa assay % of FXa alone, 5 nM Ab, 10 nM TFPI [1] is reported as 33.6% and the FXa assay % of FXa alone, 10 nM Ab, 10 nM TFPI [1] is reported as 92.4%. The FXa assay % of FXa alone, 20 nM Ab, 10 nM TFPI [1] was 91.4%, the FXa assay OD, 2.5 nM Ab, 10 nM TFPI [1] was 0.071 and the FXa assay OD, 5 nM Ab, 10 nM TFPI [1] was 0.273. It also gave an FXa assay OD, 10 nM Ab, 10 nM TFPI [1] of 0.75, an FXa assay OD, 20 nM Ab, 10 nM TFPI [1] of 0.742 and a % of Normalized, TF/FVIIa/FX complex assay, Ab 1.56 nM [2] of 5.2%. It also gave a % of Normalized, TF/FVIIa/FX complex assay, Ab 3.13 nM [2] of 5.4%, a % of Normalized, TF/FVIIa/FX complex assay, Ab 6.25 nM [2] of 7.3% and a % of Normalized, TF/FVIIa/FX complex assay, Ab 12.5 nM [2] of 12.4%. It also gave a % of Normalized, TF/FVIIa/FX complex assay, Ab 25 nM [2] of 54.4%, a % of Normalized, TF/FVIIa/FX complex assay, Ab 50 nM [2] of 86.1% and a % of Normalized, TF/FVIIa/FX complex assay, Ab 100 nM [2] of 100%. For the same binder, the FXa assay % of FXa alone, 2.5 nM Ab, 10 nM TFPI [3] was 9%, the FXa assay % of FXa alone, 5 nM Ab, 10 nM TFPI [3] was 61.3% and the FXa assay % of FXa alone, 10 nM Ab, 10 nM TFPI [3] was 97.4%. For the same binder, the FXa assay % of FXa alone, 20 nM Ab, 10 nM TFPI [3] was 93.6%, the FXa assay OD, 2.5 nM Ab, 10 nM TFPI [3] was 0.065 and the FXa assay OD, 5 nM Ab, 10 nM TFPI [3] was 0.441. It also gave an FXa assay OD, 10 nM Ab, 10 nM TFPI [3] of 0.701, an FXa assay OD, 20 nM Ab, 10 nM TFPI [3] of 0.673 and an A405, TF/FVIIa/FX complex assay, Ab 1.56 nM [4] of 0.137. The A405, TF/FVIIa/FX complex assay, Ab 3.13 nM [4] was 0.143, the A405, TF/FVIIa/FX complex assay, Ab 6.25 nM [4] was 0.156 and the A405, TF/FVIIa/FX complex assay, Ab 12.5 nM [4] was 0.241. The A405, TF/FVIIa/FX complex assay, Ab 25 nM [4] was 0.932, the A405, TF/FVIIa/FX complex assay, Ab 50 nM [4] was 0.953 and the A405, TF/FVIIa/FX complex assay, Ab 100 nM [4] was 0.952. It also gave an A405, TF/FVIIa/FX complex assay, Ab 1.56 nM [5] of 0.151, an A405, TF/FVIIa/FX complex assay, Ab 3.13 nM [5] of 0.171 and an A405, TF/FVIIa/FX complex assay, Ab 6.25 nM [5] of 0.18. It also gave an A405, TF/FVIIa/FX complex assay, Ab 12.5 nM [5] of 0.233, an A405, TF/FVIIa/FX complex assay, Ab 25 nM [5] of 0.955 and an A405, TF/FVIIa/FX complex assay, Ab 50 nM [5] of 0.951. It also gave an A405, TF/FVIIa/FX complex assay, Ab 100 nM [5] of 0.966, a % of Normalized, TF/FVIIa/FX complex assay (FX 5 nM), Ab 1.56 nM [6] of 5.3% and a % of Normalized, TF/FVIIa/FX complex assay (FX 5 nM), Ab 3.13 nM [6] of 5.7%. For the same binder, the % of Normalized, TF/FVIIa/FX complex assay (FX 5 nM), Ab 6.25 nM [6] was 6.1%, the % of Normalized, TF/FVIIa/FX complex assay (FX 5 nM), Ab 12.5 nM [6] was 10.1% and the % of Normalized, TF/FVIIa/FX complex assay (FX 5 nM), Ab 25 nM [6] was 42.5%. The % of Normalized, TF/FVIIa/FX complex assay (FX 5 nM), Ab 50 nM [6] was 90.6%, the % of Normalized, TF/FVIIa/FX complex assay (FX 5 nM), Ab 100 nM [6] was 99.4% and the % of Normalized, TF/FVIIa/FX complex assay, Ab 1.56 nM [6] was 13.6%. The % of Normalized, TF/FVIIa/FX complex assay, Ab 3.13 nM [6] was 15.7%, the % of Normalized, TF/FVIIa/FX complex assay, Ab 6.25 nM [6] was 18.2% and the % of Normalized, TF/FVIIa/FX complex assay, Ab 12.5 nM [6] was 23.7%. The % of Normalized, TF/FVIIa/FX complex assay, Ab 25 nM [6] was 100%, the % of Normalized, TF/FVIIa/FX complex assay, Ab 50 nM [6] was 101% and the % of Normalized, TF/FVIIa/FX complex assay, Ab 100 nM [6] was 102%. For the same binder, the A405, TF/FVIIa/FX complex assay (FX 5 nM), Ab 1.56 nM [6] was 0.043, the A405, TF/FVIIa/FX complex assay (FX 5 nM), Ab 3.13 nM [6] was 0.047 and the A405, TF/FVIIa/FX complex assay (FX 5 nM), Ab 6.25 nM [6] was 0.05. The A405, TF/FVIIa/FX complex assay (FX 5 nM), Ab 12.5 nM [6] was 0.082, the A405, TF/FVIIa/FX complex assay (FX 5 nM), Ab 25 nM [6] was 0.344 and the A405, TF/FVIIa/FX complex assay (FX 5 nM), Ab 50 nM [6] was 0.733. For the same binder, the A405, TF/FVIIa/FX complex assay (FX 5 nM), Ab 100 nM [6] was 0.805, the A405, TF/FVIIa/FX complex assay, Ab 1.56 nM [6] was 0.125 and the A405, TF/FVIIa/FX complex assay, Ab 3.13 nM [6] was 0.145. The A405, TF/FVIIa/FX complex assay, Ab 6.25 nM [6] was 0.168, the A405, TF/FVIIa/FX complex assay, Ab 12.5 nM [6] was 0.218 and the A405, TF/FVIIa/FX complex assay, Ab 25 nM [6] was 0.918. The A405, TF/FVIIa/FX complex assay, Ab 50 nM [6] was 0.929, the A405, TF/FVIIa/FX complex assay, Ab 100 nM [6] was 0.937 and the A405, TF/FVIIa/FX complex assay, Ab 1.56 nM [7] was 0.044. It also gave an A405, TF/FVIIa/FX complex assay, Ab 3.13 nM [7] of 0.046, an A405, TF/FVIIa/FX complex assay, Ab 6.25 nM [7] of 0.062 and an A405, TF/FVIIa/FX complex assay, Ab 12.5 nM [7] of 0.105. The A405, TF/FVIIa/FX complex assay, Ab 25 nM [7] was 0.462.

Source: patent US20180030151A1
